Changes are numbered by the printed parent chain. Values belong to the binder of their own block, whether it stands above or below them.
Target: T1, extracellular domain of human IL12RB1 (hIL12Rb1 ECD antigen) (human, UniProt P42701 24-545)
T1 construct: also called IL12Rβ1; CD212
Experiment: periplasmic extract ELISA on antigen-coated plate after phage biopanning
Method: Upon completion of the biopanning of Example 3, three 96-well plates of individual phage clones were isolated in order to perform periplasmic extract ELISA (PE-ELISA) on IL12Rb1 coated plates to identify positive VHH binders that selectively bound IL12Rb1. A 96-well plate was coated with IL12Rb1 and PBS under the same conditions. Next, wells were blocked at 37° ° C. for 1 h. Then, 100 μl of extracted antibodies was added to each well and incubated for 1 h. Subsequently, 100 μl of anti-tag polyclonal antibody conjugated to HRP was added to each well and incubated at 37 °C for 1 h. Plates were developed with TMB substrate. The reaction was stopped by the addition of H2SO4. Absorbance at 450 nm was read on a microtiter plate reader. Antibodies with absorbance of the antigen-coated well at least threefold greater than PBS-coated control are VHHs that specifically bind to IL12Rb1. Positive clones were sequenced, and sequences analyzed to identify unique clonotypes.

B1: hIL12Rb1_VHH6 (VHH)
VHH: QVQLQESGGGSVQAGGSLRLSCAASRYTYTNNFMAWFRQAPGKEREGVAAIYTGDGYAYYFYSVKGRFTISQDNDENMLYLQMNSLKPEDTAMYYCAAMERRIGTRRMTENAEYKYWGQGTQVTVSS
notes: Camel VHH
- binding result: binds

B6: hIL12Rb1_VHH17 (VHH)
VHH: QVQLQESGGGSVQAGGFLRLSCVASGYGYCGYDMSWYRQVPGKEREFVALITSDRSVSYEDSVKGRFSISRDNAKNTAYLEMNRLTPDDTAIYYCKTSTAARENNWCRSRYRIASWGQGTQVTVSS
notes: Camel VHH
- binding result: binds

B7: hIL12Rb1_VHH13 (VHH)
VHH: B6 VHH with V40A, D54E, S56V, V57I, K75E, A78G, T99A, N104S, N105S, I113V
notes: Camel VHH
- binding result: binds

B8: hIL12Rb1_VHH5 (VHH)
VHH: B6 VHH with I92V, S115Y
notes: Camel VHH
- binding result: binds

B10: hIL12Rb1_VHH22 (VHH)
VHH: QVQLQESGGGSVQAGGSLRLSCTASGYTYSSAFMAWFRQAPGKEREGVAAIYTRDGGTVYADSVKGRFTISQDNAKNTLYLQMNSLKAEDTAMYYCAAKIPQPGRASLLDSQTYDYWGQGTQVTVSS
notes: Camel VHH
- binding result: binds

B13: hIL12Rb1_VHH20 (VHH)
VHH: B10 VHH with G57S, T58P, V64L, Y80H, A88P, Q102E, A106I, Q119H
notes: Camel VHH
- binding result: binds

B14: hIL12Rb1_VHH12 (VHH)
VHH: B10 VHH with A88P, I100M
notes: Camel VHH
- binding result: binds

B16: hIL12Rb1_VHH3 (VHH)
VHH: QVQLQESGGGSVQAGGSLRLSCVASGYSYCGYDMMWYRQAPGKEREFVALITSDYSIRYEDSVEGRFSISRDNAKNTGYLLMSNLTPADTAIYYCKTSTAARESSWCRSRYRVASWGQGTQVTVSS
notes: Camel VHH
- binding result: binds

B18: hIL12Rb1_VHH9 (VHH)
VHH: B16 VHH with S105G
notes: Camel VHH
- binding result: binds

The next lines start with the values.

- binding result: binds
B2: hIL12Rb1_VHH18 (VHH)
VHH: B1 VHH with Y62D, E76K, I103S, T105R
notes: Camel VHH

- binding result: binds
B3: hIL12Rb1_VHH15 (VHH)
VHH: QVQLQESGGGSVQAGGSLRLSCAVSGYDYCGYDVRWYRQAPGKEREFVSGINSDGSTSYADSVKGRFTISQDNAENTSYLHMFSLKPEDTAMYYCKTESPAGESAWCRNFRGMDYWGKGTQVTVSS
notes: Camel VHH

- binding result: binds
B4: hIL12Rb1_VHH11 (VHH)
VHH: B3 VHH with N52D
notes: Camel VHH

- binding result: binds
B5: hIL12Rb1_VHH19 (VHH)
VHH: B3 VHH with S99G
notes: Camel VHH

- binding result: binds
B9: hIL12Rb1_VHH4 (VHH)
VHH: QVQLQESGGGSVQAGGSLRLSCVASGYGYCGYDMSWYRQTPGKEREFVALITSDRIASYEDSVKGRFIISRDNAKNTGYLDMTRVTPDDTAIYYCKTSAAARENSWCRSRYRVASWGQGTQVTVSS
notes: Camel VHH

- binding result: binds
B11: hIL12Rb1_VHH16 (VHH)
VHH: B10 VHH with I51M, M83I, N84H, S85T
notes: Camel VHH

- binding result: binds
B12: hIL12Rb1_VHH21 (VHH)
VHH: B10 VHH with I51M, A88T
notes: Camel VHH

- binding result: binds
B15: hIL12Rb1_VHH2 (VHH)
VHH: B10 VHH with T78I
notes: Camel VHH

- binding result: binds
B17: hIL12Rb1_VHH8 (VHH)
VHH: B16 VHH
notes: Camel VHH

From US20240166754A1 (SYNTHEKINE, published 2024)
